Laboratory results: paper PMC6463007

Biological target: E. coli GyrB (DNA gyrase subunit B) (E. coli) (UniProt P0AES6)

Chain of E. coli GyrA (DNA gyrase subunit A) (P0AES4 whole entry): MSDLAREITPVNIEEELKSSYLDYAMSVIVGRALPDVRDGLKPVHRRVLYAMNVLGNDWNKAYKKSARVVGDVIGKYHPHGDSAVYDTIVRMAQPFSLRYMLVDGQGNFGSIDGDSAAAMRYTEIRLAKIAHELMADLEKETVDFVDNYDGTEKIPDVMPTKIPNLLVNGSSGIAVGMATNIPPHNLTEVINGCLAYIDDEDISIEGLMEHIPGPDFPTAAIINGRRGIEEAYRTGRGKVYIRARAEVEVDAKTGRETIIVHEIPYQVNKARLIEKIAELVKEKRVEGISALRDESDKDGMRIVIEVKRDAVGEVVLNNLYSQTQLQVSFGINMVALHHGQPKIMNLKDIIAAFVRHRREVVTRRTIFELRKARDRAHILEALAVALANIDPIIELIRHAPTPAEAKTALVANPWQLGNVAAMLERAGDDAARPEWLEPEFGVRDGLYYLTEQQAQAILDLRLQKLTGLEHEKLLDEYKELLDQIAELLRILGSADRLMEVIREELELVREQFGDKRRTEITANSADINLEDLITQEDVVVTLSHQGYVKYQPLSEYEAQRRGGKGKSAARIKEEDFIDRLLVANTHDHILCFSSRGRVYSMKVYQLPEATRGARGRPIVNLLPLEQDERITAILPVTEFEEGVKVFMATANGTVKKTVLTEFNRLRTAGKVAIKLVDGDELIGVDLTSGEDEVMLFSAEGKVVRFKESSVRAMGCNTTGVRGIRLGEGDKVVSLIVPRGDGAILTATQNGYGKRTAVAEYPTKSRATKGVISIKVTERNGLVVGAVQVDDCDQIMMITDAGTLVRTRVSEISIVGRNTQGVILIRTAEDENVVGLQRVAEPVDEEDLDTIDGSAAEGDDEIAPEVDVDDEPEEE

E. coli GyrA (DNA gyrase subunit A) (from UniProt P0AES4 1-875) (enzyme)
supercoiling of relaxed pMP1000 plasmid by gyrase reconstituted from the two purified subunits; time course 5-80 s after ATP, 30 °C, chloroquine gel (supercoils/sec): 5
